± gives the standard error.
Experiment: background-corrected fluorescence of 3'-dye-labeled ssDNA relative to brightest sequence (3'-GCGCG) (fraction); higher = brighter dye fluorescence (less quenching)
Experimental: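 Single-stranded DNA is synthesized in situ on glass microarrays by 5'->3' photolithographic synthesis, with a Cy3 or Cy5 phosphoramidite coupled at the 3' end next to all 1024 permuted pentamers P1-P5. The construct is 5'-T5-(ACGT minus P5..P1 trinucleotides)-T15-P5P4P3P2P1-dye-3'; the dye is a 3' terminal modification, not part of the sequence. Arrays were scanned at 532 nm (Cy3) or 635 nm (Cy5), background from unlabeled oligos was subtracted, and values are averaged over 10 replicate features per array and at least 3 independent syntheses.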

| Sequence | background-corrected fluorescence (dye: Cy3 (3' terminal)) | background-corrected fluorescence (dye: Cy5 (3' terminal)) |
| --- | --- | --- |
| TTTTTGCATGAGCATCAGCATTTTTTTTTTTTTTTTCTGT [TGTCT] | 0.594 ± 0.015 | 0.433 ± 0.02 |
| TTTTTGCATGAGCATCATCATTTTTTTTTTTTTTTTCTGG [GGTCT] | 0.563 ± 0.024 | 0.43 ± 0.035 |
| TTTTTGCATGAGCATCATGATTTTTTTTTTTTTTTTCTGC [CGTCT] | 0.491 ± 0.029 | 0.368 ± 0.024 |
| TTTTTGCATGAGCATCATGCTTTTTTTTTTTTTTTTCTGA [AGTCT] | 0.611 ± 0.018 | 0.56 ± 0.037 |
| TTTTTGCATGAGCATGAGCATTTTTTTTTTTTTTTTCTCT | 0.464 ± 0.014 | 0.332 ± 0.024 |
| TTTTTGCATGAGCATGATCATTTTTTTTTTTTTTTTCTCG [GCTCT] | 0.506 ± 0.02 | 0.376 ± 0.039 |
| TTTTTGCATGAGCATGATGATTTTTTTTTTTTTTTTCTCC [CCTCT] | 0.335 ± 0.042 | 0.268 ± 0.019 |
| TTTTTGCATGAGCATGATGCTTTTTTTTTTTTTTTTCTCA [ACTCT] | 0.456 ± 0.019 | 0.348 ± 0.022 |
| TTTTTGCATGAGCATGCGCATTTTTTTTTTTTTTTTCTAT [TATCT] | 0.501 ± 0.027 | 0.37 ± 0.029 |
| TTTTTGCATGAGCATGCTCATTTTTTTTTTTTTTTTCTAG [GATCT] | 0.52 ± 0.027 | 0.401 ± 0.031 |
| TTTTTGCATGAGCATGCTGATTTTTTTTTTTTTTTTCTAC [CATCT] | 0.409 ± 0.017 | 0.296 ± 0.017 |
| TTTTTGCATGAGCATGCTGCTTTTTTTTTTTTTTTTCTAA [AATCT] | 0.539 ± 0.023 | 0.454 ± 0.047 |
| TTTTTGCATGATCAGCAGCATTTTTTTTTTTTTTTTCGTT [TTGCT] | 0.55 ± 0.029 | 0.417 ± 0.026 |
| TTTTTGCATGATCAGCATCATTTTTTTTTTTTTTTTCGTG [GTGCT] | 0.525 ± 0.015 | 0.441 ± 0.029 |
| TTTTTGCATGATCAGCATGATTTTTTTTTTTTTTTTCGTC [CTGCT] | 0.467 ± 0.034 | 0.352 ± 0.03 |
| TTTTTGCATGATCAGCATGCTTTTTTTTTTTTTTTTCGTA | 0.59 ± 0.023 | 0.457 ± 0.043 |
| TTTTTGCATGATCATCAGCATTTTTTTTTTTTTTTTCGGT [TGGCT] | 0.66 ± 0.028 | 0.513 ± 0.035 |
| TTTTTGCATGATCATCATCATTTTTTTTTTTTTTTTCGGG [GGGCT] | 0.664 ± 0.02 | 0.558 ± 0.044 |
| TTTTTGCATGATCATCATGATTTTTTTTTTTTTTTTCGGC [CGGCT] | 0.546 ± 0.031 | 0.47 ± 0.042 |
| TTTTTGCATGATCATCATGCTTTTTTTTTTTTTTTTCGGA [AGGCT] | 0.734 ± 0.076 | 0.648 ± 0.024 |
| TTTTTGCATGATCATGAGCATTTTTTTTTTTTTTTTCGCT | 0.486 ± 0.0071 | 0.392 ± 0.085 |
| TTTTTGCATGATCATGATCATTTTTTTTTTTTTTTTCGCG [GCGCT] | 0.93 ± 0.023 | 0.964 ± 0.064 |

| Sequence | background-corrected fluorescence (dye: Cy3 (3' terminal)) | background-corrected fluorescence (dye: Cy5 (3' terminal)) |
| --- | --- | --- |
| TTTTTGCATGATCATGATGATTTTTTTTTTTTTTTTCGCC [CCGCT] | 0.462 ± 0.036 | 0.337 ± 0.022 |
| TTTTTGCATGATCATGATGCTTTTTTTTTTTTTTTTCGCA [ACGCT] | 0.569 ± 0.035 | 0.434 ± 0.029 |
| TTTTTGCATGATCATGCGCATTTTTTTTTTTTTTTTCGAT [TAGCT] | 0.64 ± 0.011 | 0.441 ± 0.022 |
| TTTTTGCATGATCATGCTCATTTTTTTTTTTTTTTTCGAG [GAGCT] | 0.616 ± 0.029 | 0.478 ± 0.035 |
| TTTTTGCATGATCATGCTGATTTTTTTTTTTTTTTTCGAC [CAGCT] | 0.448 ± 0.03 | 0.378 ± 0.038 |
| TTTTTGCATGATCATGCTGCTTTTTTTTTTTTTTTTCGAA [AAGCT] | 0.632 ± 0.0073 | 0.524 ± 0.043 |
| TTTTTGCATGATGAGCAGCATTTTTTTTTTTTTTTTCCTT | 0.435 ± 0.027 | 0.351 ± 0.029 |
| TTTTTGCATGATGAGCATCATTTTTTTTTTTTTTTTCCTG [GTCCT] | 0.475 ± 0.028 | 0.366 ± 0.034 |
| TTTTTGCATGATGAGCATGATTTTTTTTTTTTTTTTCCTC [CTCCT] | 0.351 ± 0.02 | 0.266 ± 0.019 |
| TTTTTGCATGATGAGCATGCTTTTTTTTTTTTTTTTCCTA [ATCCT] | 0.455 ± 0.019 | 0.355 ± 0.019 |
| TTTTTGCATGATGATCAGCATTTTTTTTTTTTTTTTCCGT [TGCCT] | 0.613 ± 0.021 | 0.484 ± 0.027 |
| TTTTTGCATGATGATCATCATTTTTTTTTTTTTTTTCCGG [GGCCT] | 0.617 ± 0.0071 | 0.539 ± 0.037 |
| TTTTTGCATGATGATCATGATTTTTTTTTTTTTTTTCCGC [CGCCT] | 0.504 ± 0.022 | 0.412 ± 0.025 |
| TTTTTGCATGATGATCATGCTTTTTTTTTTTTTTTTCCGA [AGCCT] | 0.581 ± 0.026 | 0.552 ± 0.031 |
| TTTTTGCATGATGATGAGCATTTTTTTTTTTTTTTTCCCT | 0.472 ± 0.027 | 0.317 ± 0.026 |
| TTTTTGCATGATGATGATCATTTTTTTTTTTTTTTTCCCG [GCCCT] | 0.509 ± 0.013 | 0.381 ± 0.04 |
| TTTTTGCATGATGATGATGATTTTTTTTTTTTTTTTCCCC [CCCCT] | 0.33 ± 0.022 | 0.243 ± 0.015 |
| TTTTTGCATGATGATGATGCTTTTTTTTTTTTTTTTCCCA [ACCCT] | 0.441 ± 0.036 | 0.346 ± 0.035 |
| TTTTTGCATGATGATGCGCATTTTTTTTTTTTTTTTCCAT [TACCT] | 0.477 ± 0.025 | 0.344 ± 0.024 |
| TTTTTGCATGATGATGCTCATTTTTTTTTTTTTTTTCCAG [GACCT] | 0.47 ± 0.02 | 0.377 ± 0.02 |
| TTTTTGCATGATGATGCTGATTTTTTTTTTTTTTTTCCAC [CACCT] | 0.379 ± 0.023 | 0.273 ± 0.016 |
| TTTTTGCATGATGATGCTGCTTTTTTTTTTTTTTTTCCAA [AACCT] | 0.536 ± 0.038 | 0.388 ± 0.025 |

| Sequence | background-corrected fluorescence (dye: Cy3 (3' terminal)) | background-corrected fluorescence (dye: Cy5 (3' terminal)) |
| --- | --- | --- |
| TTTTTGCATGATGCGCAGCATTTTTTTTTTTTTTTTCATT [TTACT] | 0.485 ± 0.03 | 0.359 ± 0.028 |
| TTTTTGCATGATGCGCATCATTTTTTTTTTTTTTTTCATG [GTACT] | 0.524 ± 0.054 | 0.377 ± 0.019 |
| TTTTTGCATGATGCGCATGATTTTTTTTTTTTTTTTCATC [CTACT] | 0.406 ± 0.0046 | 0.305 ± 0.028 |
| TTTTTGCATGATGCGCATGCTTTTTTTTTTTTTTTTCATA [ATACT] | 0.518 ± 0.019 | 0.396 ± 0.024 |
| TTTTTGCATGATGCTCAGCATTTTTTTTTTTTTTTTCAGT [TGACT] | 0.596 ± 0.016 | 0.488 ± 0.05 |
| TTTTTGCATGATGCTCATCATTTTTTTTTTTTTTTTCAGG [GGACT] | 0.606 ± 0.034 | 0.486 ± 0.034 |
| TTTTTGCATGATGCTCATGATTTTTTTTTTTTTTTTCAGC [CGACT] | 0.492 ± 0.012 | 0.393 ± 0.047 |
| TTTTTGCATGATGCTCATGCTTTTTTTTTTTTTTTTCAGA [AGACT] | 0.615 ± 0.017 | 0.531 ± 0.036 |
| TTTTTGCATGATGCTGAGCATTTTTTTTTTTTTTTTCACT | 0.447 ± 0.036 | 0.334 ± 0.02 |
| TTTTTGCATGATGCTGATCATTTTTTTTTTTTTTTTCACG [GCACT] | 0.491 ± 0.03 | 0.399 ± 0.022 |
| TTTTTGCATGATGCTGATGATTTTTTTTTTTTTTTTCACC [CCACT] | 0.382 ± 0.011 | 0.265 ± 0.016 |
| TTTTTGCATGATGCTGATGCTTTTTTTTTTTTTTTTCACA [ACACT] | 0.485 ± 0.015 | 0.379 ± 0.034 |
| TTTTTGCATGATGCTGCGCATTTTTTTTTTTTTTTTCAAT [TAACT] | 0.554 ± 0.027 | 0.386 ± 0.019 |
| TTTTTGCATGATGCTGCTCATTTTTTTTTTTTTTTTCAAG [GAACT] | 0.515 ± 0.054 | 0.39 ± 0.042 |
| TTTTTGCATGATGCTGCTGATTTTTTTTTTTTTTTTCAAC [CAACT] | 0.429 ± 0.0094 | 0.318 ± 0.025 |
| TTTTTGCATGATGCTGCTGCTTTTTTTTTTTTTTTTCAAA [AAACT] | 0.562 ± 0.024 | 0.462 ± 0.051 |
| TTTTTGCATGCGCAGCAGCATTTTTTTTTTTTTTTTATTT | 0.539 ± 0.04 | 0.381 ± 0.021 |
| TTTTTGCATGCGCAGCATCATTTTTTTTTTTTTTTTATTG [GTTAT] | 0.522 ± 0.018 | 0.359 ± 0.021 |
| TTTTTGCATGCGCAGCATGATTTTTTTTTTTTTTTTATTC [CTTAT] | 0.394 ± 0.023 | 0.292 ± 0.018 |
| TTTTTGCATGCGCAGCATGCTTTTTTTTTTTTTTTTATTA [ATTAT] | 0.545 ± 0.017 | 0.409 ± 0.035 |
| TTTTTGCATGCGCATCAGCATTTTTTTTTTTTTTTTATGT [TGTAT] | 0.639 ± 0.033 | 0.489 ± 0.046 |
| TTTTTGCATGCGCATCATCATTTTTTTTTTTTTTTTATGG [GGTAT] | 0.576 ± 0.011 | 0.467 ± 0.023 |

Reference: the supplement of paper PMC9428881
